Starred links: 1 amine or outer side, 2 acyl side, 3 side chain; linkers in the order of their positions; H or OH if unused. Non-standard residues stand in square brackets, D forms with d. TyrEtNAc = (2S)-3-[4-(2-acetamidoethoxy)phenyl]-2-amino-propanoic acid, CC(=O)NCCOc1ccc(C[C@H](N[*:1])C(=O)[*:2])cc1; dProc3Bn = (2R,3S)-3-benzylpyrrolidine-2-carboxylic acid, O=C([C@H]1[C@@H](Cc2ccccc2)CCN1[*:1])[*:2]; dProc4Bn = (2R,4R)-4-benzylpyrrolidine-2-carboxylic acid, O=C([C@H]1C[C@@H](Cc2ccccc2)CN1[*:1])[*:2]; Phe(4-(5-CO2H-2-pyrimidyl)) = N[C@@H](Cc1ccc(-c2ncc(C(=O)O)cn2)cc1)C(=O)O; dPro(4R-(4-pyridylmethyl)) = O=C(O)[C@H]1C[C@@H](Cc2ccncc2)CN1; Trp(βS-Me,4-F) = C[C@@H](c1c[nH]c2cccc(F)c12)[C@H](N)C(=O)O; 3Aminoazetidine3carboxyl = O=C(C1(N[*:1])CN([*:3])C1)[*:2]; Bip(4'-COOH) = N[C@@H](Cc1ccc(-c2ccc(C(=O)O)cc2)cc1)C(=O)O; Ala(1-bicyclo(1.1.1)pentyl) = N[C@@H](CC12CC(C1)C2)C(=O)O; dPro(4R-Bzl(4-F)) = O=C(O)[C@H]1C[C@@H](Cc2ccc(F)cc2)CN1; Ala(pyrimidin-5-yl) = N[C@@H](Cc1cncnc1)C(=O)O; Phe(4-COOH) = N[C@@H](Cc1ccc(C(=O)O)cc1)C(=O)O; Pro(cis-4-F) = O=C(O)[C@@H]1C[C@H](F)CN1; 4Pal = N[C@@H](Cc1ccncc1)C(=O)O; Orn = NCCC[C@H](N)C(=O)O; Dab = NCC[C@H](N)C(=O)O; Aib = CC(C)(N)C(=O)O
B1: SEQ ID NO: 81 (peptide)
peptide: cyclo([Phe(4-(5-CO2H-2-pyrimidyl))][4Pal][Phe(4-COOH)]G[Pro(cis-4-F)][Trp(βS-Me,4-F)][Aib]EW[3Aminoazetidine3carboxyl][4Pal]Q[Dab]G[dPro(4R-Bzl(4-F))])
SMILES: C[C@@H](c1c[nH]c2cccc(F)c12)[C@@H]1NC(=O)[C@@H]2C[C@H](F)CN2C(=O)CNC(=O)[C@H](Cc2ccc(C(=O)O)cc2)NC(=O)[C@H](Cc2ccncc2)NC(=O)[C@H](Cc2ccc(-c3ncc(C(=O)O)cn3)cc2)NC(=O)[C@H]2C[C@@H](Cc3ccc(F)cc3)CN2C(=O)CNC(=O)[C@H](CCN)NC(=O)[C@H](CCC(N)=O)NC(=O)[C@H](Cc2ccncc2)NC(=O)C2(CNC2)NC(=O)[C@H](Cc2c[nH]c3ccccc23)NC(=O)[C@H](CCC(=O)O)NC(=O)C(C)(C)NC1=O
B2: SEQ ID NO: 85 (peptide)
peptide: cyclo([Phe(4-(5-CO2H-2-pyrimidyl))][4Pal][Phe(4-COOH)]G[Pro(cis-4-F)][Trp(βS-Me,4-F)][Aib]AW[Aib][4Pal]Q[Dab]G[dPro(4R-(4-pyridylmethyl))])
SMILES: C[C@@H]1NC(=O)C(C)(C)NC(=O)[C@H]([C@@H](C)c2c[nH]c3cccc(F)c23)NC(=O)[C@@H]2C[C@H](F)CN2C(=O)CNC(=O)[C@H](Cc2ccc(C(=O)O)cc2)NC(=O)[C@H](Cc2ccncc2)NC(=O)[C@H](Cc2ccc(-c3ncc(C(=O)O)cn3)cc2)NC(=O)[C@H]2C[C@@H](Cc3ccncc3)CN2C(=O)CNC(=O)[C@H](CCN)NC(=O)[C@H](CCC(N)=O)NC(=O)[C@H](Cc2ccncc2)NC(=O)C(C)(C)NC(=O)[C@H](Cc2c[nH]c3ccccc23)NC1=O
B3: SEQ ID NO: 78 (peptide)
peptide: cyclo([TyrEtNAc][4Pal][Phe(4-COOH)][Pro(cis-4-F)][Trp(βS-Me,4-F)][Aib]EW[Aib][Ala(pyrimidin-5-yl)]Q[Dab]G[dProc3Bn])
SMILES: CC(=O)NCCOc1ccc(C[C@@H]2NC(=O)[C@H]3[C@@H](Cc4ccccc4)CCN3C(=O)CNC(=O)[C@H](CCN)NC(=O)[C@H](CCC(N)=O)NC(=O)[C@H](Cc3cncnc3)NC(=O)C(C)(C)NC(=O)[C@H](Cc3c[nH]c4ccccc34)NC(=O)[C@H](CCC(=O)O)NC(=O)C(C)(C)NC(=O)[C@H]([C@@H](C)c3c[nH]c4cccc(F)c34)NC(=O)[C@@H]3C[C@H](F)CN3C(=O)[C@H](Cc3ccc(C(=O)O)cc3)NC(=O)[C@H](Cc3ccncc3)NC2=O)cc1
B4: SEQ ID NO: 83 (peptide)
peptide: cyclo([Phe(4-(5-CO2H-2-pyrimidyl))][Ala(1-bicyclo(1.1.1)pentyl)][Phe(4-COOH)]G[Pro(cis-4-F)][Trp(βS-Me,4-F)][Aib]SW[Aib][Ala(pyrimidin-5-yl)]Q[Dab]G[dPro(4R-Bzl(4-F))])
SMILES: C[C@@H](c1c[nH]c2cccc(F)c12)[C@@H]1NC(=O)[C@@H]2C[C@H](F)CN2C(=O)CNC(=O)[C@H](Cc2ccc(C(=O)O)cc2)NC(=O)[C@H](CC23CC(C2)C3)NC(=O)[C@H](Cc2ccc(-c3ncc(C(=O)O)cn3)cc2)NC(=O)[C@H]2C[C@@H](Cc3ccc(F)cc3)CN2C(=O)CNC(=O)[C@H](CCN)NC(=O)[C@H](CCC(N)=O)NC(=O)[C@H](Cc2cncnc2)NC(=O)C(C)(C)NC(=O)[C@H](Cc2c[nH]c3ccccc23)NC(=O)[C@H](CO)NC(=O)C(C)(C)NC1=O
B5: SEQ ID NO: 77 (peptide)
peptide: cyclo([TyrEtNAc][4Pal][Phe(4-COOH)][Pro(cis-4-F)][Trp(βS-Me,4-F)][Aib]EW[Aib][Ala(pyrimidin-5-yl)]QSG[dProc3Bn])
SMILES: CC(=O)NCCOc1ccc(C[C@@H]2NC(=O)[C@H]3[C@@H](Cc4ccccc4)CCN3C(=O)CNC(=O)[C@H](CO)NC(=O)[C@H](CCC(N)=O)NC(=O)[C@H](Cc3cncnc3)NC(=O)C(C)(C)NC(=O)[C@H](Cc3c[nH]c4ccccc34)NC(=O)[C@H](CCC(=O)O)NC(=O)C(C)(C)NC(=O)[C@H]([C@@H](C)c3c[nH]c4cccc(F)c34)NC(=O)[C@@H]3C[C@H](F)CN3C(=O)[C@H](Cc3ccc(C(=O)O)cc3)NC(=O)[C@H](Cc3ccncc3)NC2=O)cc1
B6: SEQ ID NO: 8 (peptide)
peptide: cyclo([Bip(4'-COOH)][4Pal][Phe(4-COOH)]G[Pro(cis-4-F)][Trp(βS-Me,4-F)][Aib]EW[Aib][Ala(pyrimidin-5-yl)]Q[Orn]G[dPro(4R-Bzl(4-F))])
SMILES: C[C@@H](c1c[nH]c2cccc(F)c12)[C@@H]1NC(=O)[C@@H]2C[C@H](F)CN2C(=O)CNC(=O)[C@H](Cc2ccc(C(=O)O)cc2)NC(=O)[C@H](Cc2ccncc2)NC(=O)[C@H](Cc2ccc(-c3ccc(C(=O)O)cc3)cc2)NC(=O)[C@H]2C[C@@H](Cc3ccc(F)cc3)CN2C(=O)CNC(=O)[C@H](CCCN)NC(=O)[C@H](CCC(N)=O)NC(=O)[C@H](Cc2cncnc2)NC(=O)C(C)(C)NC(=O)[C@H](Cc2c[nH]c3ccccc23)NC(=O)[C@H](CCC(=O)O)NC(=O)C(C)(C)NC1=O
B7: SEQ ID NO: 82 (peptide)
peptide: cyclo([Phe(4-(5-CO2H-2-pyrimidyl))][Ala(1-bicyclo(1.1.1)pentyl)][Phe(4-COOH)]G[Pro(cis-4-F)][Trp(βS-Me,4-F)][Aib]EW[Aib][Ala(pyrimidin-5-yl)]Q[Dab]G[dPro(4R-Bzl(4-F))])
SMILES: C[C@@H](c1c[nH]c2cccc(F)c12)[C@@H]1NC(=O)[C@@H]2C[C@H](F)CN2C(=O)CNC(=O)[C@H](Cc2ccc(C(=O)O)cc2)NC(=O)[C@H](CC23CC(C2)C3)NC(=O)[C@H](Cc2ccc(-c3ncc(C(=O)O)cn3)cc2)NC(=O)[C@H]2C[C@@H](Cc3ccc(F)cc3)CN2C(=O)CNC(=O)[C@H](CCN)NC(=O)[C@H](CCC(N)=O)NC(=O)[C@H](Cc2cncnc2)NC(=O)C(C)(C)NC(=O)[C@H](Cc2c[nH]c3ccccc23)NC(=O)[C@H](CCC(=O)O)NC(=O)C(C)(C)NC1=O
B8: SEQ ID NO: 79 (peptide)
peptide: cyclo([TyrEtNAc][4Pal][Phe(4-COOH)][Pro(cis-4-F)][Trp(βS-Me,4-F)][Aib]EW[Aib][Ala(pyrimidin-5-yl)]QSG[dProc4Bn])
SMILES: CC(=O)NCCOc1ccc(C[C@@H]2NC(=O)[C@H]3C[C@@H](Cc4ccccc4)CN3C(=O)CNC(=O)[C@H](CO)NC(=O)[C@H](CCC(N)=O)NC(=O)[C@H](Cc3cncnc3)NC(=O)C(C)(C)NC(=O)[C@H](Cc3c[nH]c4ccccc34)NC(=O)[C@H](CCC(=O)O)NC(=O)C(C)(C)NC(=O)[C@H]([C@@H](C)c3c[nH]c4cccc(F)c34)NC(=O)[C@@H]3C[C@H](F)CN3C(=O)[C@H](Cc3ccc(C(=O)O)cc3)NC(=O)[C@H](Cc3ccncc3)NC2=O)cc1
B9: SEQ ID NO: 80 (peptide)
peptide: cyclo([TyrEtNAc][4Pal][Phe(4-COOH)][Pro(cis-4-F)][Trp(βS-Me,4-F)][Aib]EW[Aib][Ala(pyrimidin-5-yl)]Q[Dab]G[dProc4Bn])
SMILES: CC(=O)NCCOc1ccc(C[C@@H]2NC(=O)[C@H]3C[C@@H](Cc4ccccc4)CN3C(=O)CNC(=O)[C@H](CCN)NC(=O)[C@H](CCC(N)=O)NC(=O)[C@H](Cc3cncnc3)NC(=O)C(C)(C)NC(=O)[C@H](Cc3c[nH]c4ccccc34)NC(=O)[C@H](CCC(=O)O)NC(=O)C(C)(C)NC(=O)[C@H]([C@@H](C)c3c[nH]c4cccc(F)c34)NC(=O)[C@@H]3C[C@H](F)CN3C(=O)[C@H](Cc3ccc(C(=O)O)cc3)NC(=O)[C@H](Cc3ccncc3)NC2=O)cc1
B10: SEQ ID NO: 84 (peptide)
peptide: cyclo([Phe(4-(5-CO2H-2-pyrimidyl))][Ala(1-bicyclo(1.1.1)pentyl)][Phe(4-COOH)]G[Pro(cis-4-F)][Trp(βS-Me,4-F)][Aib]SW[Aib][4Pal]Q[Dab]G[dPro(4R-Bzl(4-F))])
SMILES: C[C@@H](c1c[nH]c2cccc(F)c12)[C@@H]1NC(=O)[C@@H]2C[C@H](F)CN2C(=O)CNC(=O)[C@H](Cc2ccc(C(=O)O)cc2)NC(=O)[C@H](CC23CC(C2)C3)NC(=O)[C@H](Cc2ccc(-c3ncc(C(=O)O)cn3)cc2)NC(=O)[C@H]2C[C@@H](Cc3ccc(F)cc3)CN2C(=O)CNC(=O)[C@H](CCN)NC(=O)[C@H](CCC(N)=O)NC(=O)[C@H](Cc2ccncc2)NC(=O)C(C)(C)NC(=O)[C@H](Cc2c[nH]c3ccccc23)NC(=O)[C@H](CO)NC(=O)C(C)(C)NC1=O
B11: SEQ ID NO: 87 (peptide)
peptide: cyclo([Phe(4-(5-CO2H-2-pyrimidyl))][Ala(1-bicyclo(1.1.1)pentyl)][Phe(4-COOH)]G[Pro(cis-4-F)][Trp(βS-Me,4-F)][Aib]AW[Aib][Ala(pyrimidin-5-yl)]Q[Dab]G[dPro(4R-(4-pyridylmethyl))])
SMILES: C[C@@H]1NC(=O)C(C)(C)NC(=O)[C@H]([C@@H](C)c2c[nH]c3cccc(F)c23)NC(=O)[C@@H]2C[C@H](F)CN2C(=O)CNC(=O)[C@H](Cc2ccc(C(=O)O)cc2)NC(=O)[C@H](CC23CC(C2)C3)NC(=O)[C@H](Cc2ccc(-c3ncc(C(=O)O)cn3)cc2)NC(=O)[C@H]2C[C@@H](Cc3ccncc3)CN2C(=O)CNC(=O)[C@H](CCN)NC(=O)[C@H](CCC(N)=O)NC(=O)[C@H](Cc2cncnc2)NC(=O)C(C)(C)NC(=O)[C@H](Cc2c[nH]c3ccccc23)NC1=O

The binders below were run against Recombinant human IL-1β (BioLegend 579404) (human, UniProt P01584 117-269) (assay: cell-based or functional assay).

Q: With B1 as the binder, how does the “MRC5 IC50” value read?
A: 0.049 nM

Q: How did the “MRC5 IC50” value turn out when cyclo([Phe(4-(5-CO2H-2-pyrimidyl))][Ala(1-bicyclo(1.1.1)pentyl)][Phe(4-COOH)]G[Pro(cis-4-F)][Trp(βS-Me,4-F)][Aib]EW[Aib][4Pal]Q[Dab]G[dPro(4R-(4-pyridylmethyl))]) [SEQ ID NO: 86] was run?
A: 0.075 nM

Q: With B2 as the binder, how does the “MRC5 IC50” value read?
A: 0.074 nM

Q: With B3 as the binder, how does the “MRC5 IC50” value read?
A: 0.036 nM

Q: B4 was tested. Which “MRC5 IC50” value did it give?
A: 0.045 nM

Q: With B5 as the binder, how does the “MRC5 IC50” value read?
A: 0.079 nM

Q: For B6, which “MRC5 IC50” value is on record?
A: 0.026 nM

Q: Which “MRC5 IC50” value does the source give for B7 here?
A: 0.054 nM

Q: How did the “MRC5 IC50” value turn out when B8 was run?
A: 0.059 nM

Q: With B9 as the binder, how does the “MRC5 IC50” value read?
A: 0.048 nM

Q: For B10, which “MRC5 IC50” value is on record?
A: 0.047 nM

Q: For B11, which “MRC5 IC50” value is on record?
A: 0.087 nM

Reference: patent US20260242419A1, “A CYCLIC PEPTIDE FOR TRAPPING INTERLEUKIN-1 BETA” (Merck Sharp & Dohme LLC, priority 2023, published 2026)
